Tests used:
HeLa Kyoto [1] = assay: solubility change mitosis vs G1/S (difference of NP-40 vs SDS log2 ratios) (log2 ratio difference); higher = more soluble in mitosis
HeLa Kyoto [2] = assay: solubility in G1/S (NP-40 vs SDS abundance) (log2 ratio); higher = more soluble; settings: cell cycle stage: G1/S
HeLa Kyoto [3] = assay: thermal stability score vs G1/S (z-score of summed log2 fold changes over temperatures); higher = more thermally stable than in G1/S
[4] = cell cycle stage: early G1 (4.5 h after nocodazole release)
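For solubility change mitosis vs G1/S (difference of NP-40 vs SDS log2 ratios) in this document: synchronized HeLa Kyoto cells (double thymidine block for G1/S, nocodazole release for mitosis), protein amounts in NP-40 versus SDS lysates quantified by mass spectrometry, three biological replicates.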
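For solubility in G1/S (NP-40 vs SDS abundance) in this document: HeLa Kyoto cells arrested at G1/S by double thymidine block, proteins quantified by TMT10plex mass spectrometry in mild NP-40 versus SDS extracts, three biological replicates.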
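For thermal stability score vs G1/S (z-score of summed log2 fold changes over temperatures) in this document: synchronized HeLa Kyoto cells, proteins quantified by TMT10plex mass spectrometry, three biological replicates, mitosis taken 0.5 h after nocodazole release, G1/S directly after double thymidine block.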

Substance	solubility change mitosis (log2) (HeLa Kyoto [1])	other results
MAATLILEPAGRCCWDEPVRIAVRGLAPEQPVTLRASLRDEKGALFQAHARYRADTLGELDLERAPALGGSFAGLEPMGLLWALEPEKPLVRLVKRDVRTPLAVELEVLDGHDPDPGRLLCRVRHERYFLPPGVRREPVRAGRVRGTLFLPPEPGPFPGIVDMFGTGGGLLEYRASLLAGKGFAVMALAYYNYEDLPKTMETLHLEYFEEAVNYLLSHPEVKGPGVGLLGISKGGELCLSMASFLKGITAAVVINGSVANVGGTLRYKGETLPPVGVNRNRIKVTKDGYADIVDVLNSPLEGPDQKSFIPVERAESTFLFLVGQDDHNWKSEFYANEACKRLQAHGRRKPQIICYPETGHYIEPPYFPLCRASLHALVGSPIIWGGEPRAHAMAQVDAWKQLQTFFHKHLGGHEGTIPSKV [ACOT1]	-0.000552	solubility in G1/S (log2) (HeLa Kyoto [2]): 0.138
MSGSDGGLEEEPELSITLTLRMLMHGKEVGSIIGKKGETVKRIREQSSARITISEGSCPERITTITGSTAAVFHAVSMIAFKLDEDLCAAPANGGNVSRPPVTLRLVIPASQCGSLIGKAGTKIKEIRETTGAQVQVAGDLLPNSTERAVTVSGVPDAIILCVRQICAVILESPPKGATIPYHPSLSLGTVLLSANQGFSVQGQYGAVTPAEVTKLQQLSSHAVPFATPSVVPGLDPGTQTSSQEFLVPNDLIGCVIGRQGSKISEIRQMSGAHIKIGNQAEGAGERHVTITGSPVSIALAQYLITACLETAKSTSGGTPSSAPADLPAPFSPPLTALPTAPPGLLGTPYAISLSNFIGLKPMPFLALPPASPGPPPGLAAYTAKMAAANGSKKAERQKFSPY [PCBP4]	0.0329	solubility in G1/S (log2) (HeLa Kyoto [2]): 0.0231
MDDIADRMRMDAGEVTLVNHNSVFKTHLLPQTGFPEDQLSLSDQQILSSRQGHLDRSFTCSTRSAAYNPSYYSDNPSSDSFLGSGDLRTFGQSANGQWRNSTPSSSSSLQKSRNSRSLYLETRKTSSGLSNSFAGKSNHHCHVSAYEKSFPIKPVPSPSWSGSCRRSLLSPKKTQRRHVSTAEETVQEEEREIYRQLLQMVTGKQFTIAKPTTHFPLHLSRCLSSSKNTLKDSLFKNGNSCASQIIGSDTSSSGSASILTNQEQLSHSVYSLSSYTPDVAFGSKDSGTLHHPHHHHSVPHQPDNLAASNTQSEGSDSVILLKVKDSQTPTPSSTFFQAELWIKELTSVYDSRARERLRQIEEQKALALQLQNQRLQEREHSVHDSVELHLRVPLEKEIPVTVVQETQKKGHKLTDSEDEFPEITEEMEKEIKNVFRNGNQDEVLSEAFRLTITRKDIQTLNHLNWLNDEIINFYMNMLMERSKEKGLPSVHAFNTFFFTKLKTAGYQAVKRWTKKVDVFSVDILLVPIHLGVHWCLAVVDFRKKNITYYDSMGGINNEACRILLQYLKQESIDKKRKEFDTNGWQLFSKKSQEIPQQMNGSDCGMFACKYADCITKDRPINFTQQHMPYFRKRMVWEILHRKLL [SENP1]	0.402	solubility in G1/S (log2) (HeLa Kyoto [2]): -0.531
MTMGDKKSPTRPKRQAKPAADEGFWDCSVCTFRNSAEAFKCSICDVRKGTSTRKPRINSQLVAQQVAQQYATPPPPKKEKKEKVEKQDKEKPEKDKEISPSVTKKNTNKKTKPKSDILKDPPSEANSIQSANATTKTSETNHTSRPRLKNVDRSTAQQLAVTVGNVTVIITDFKEKTRSSSTSSSTVTSSAGSEQQNQSSSGSESTDKGSSRSSTPKGDMSAVNDESF [RYBP]	0.0865	solubility in G1/S (log2) (HeLa Kyoto [2]): 0.252
MALSKRELDELKPWIEKTVKRVLGFSEPTVVTAALNCVGKGMDKKKAADHLKPFLDDSTLRFVDKLFEAVEEGRSSRHSKSSSDRSRKRELKEVFGDDSEISKESSGVKKRRIPRFEEVEEEPEVIPGPPSESPGMLTKLQIKQMMEAATRQIEERKKQLSFISPPTPQPKTPSSSQPERLPIGNTIQPSQAATFMNDAIEKARKAAELQARIQAQLALKPGLIGNANMVGLANLHAMGIAPPKVELKDQTKPTPLILDEQGRTVDATGKEIELTHRMPTLKANIRAVKREQFKQQLKEKPSEDMESNTFFDPRVSIAPSQRQRRTFKFHDKGKFEKIAQRLRTKAQLEKLQAEISQAARKTGIHTSTRLALIAPKKELKEGDIPEIEWWDSYIIPNGFDLTEENPKREDYFGITNLVEHPAQLNPPVDNDTPVTLGVYLTKKEQKKLRRQTRREAQKELQEKVRLGLMPPPEPKVRISNLMRVLGTEAVQDPTKVEAHVRAQMAKRQKAHEEANAARKLTAEQRKVKKIKKLKEDISQGVHISVYRVRNLSNPAKKFKIEANAGQLYLTGVVVLHKDVNVVVVEGGPKAQKKFKRLMLHRIKWDEQTSNTKGDDDEESDEEAVKKTNKCVLVWEGTAKDRSFGEMKFKQCPTENMAREHFKKHGAEHYWDLALSESVLESTD [PRPF3]	0.331	thermal stability score (HeLa Kyoto [3]; [4]): 0.798; thermal stability score (HeLa Kyoto [3]; cell cycle stage: mitosis): 3.15
JMJD6	-0.18	–
ARPC2	-0.0639	–
MTKDKNSPGLKKKSQSVDINAPGFNPLAGAGKQTPQASKPPAPKTPIIEEEQNNAANTQKHPSRRSELKRFYTIDTGQKKTLDKKDGRRMSFQKPKGTIEYTVESRDSLNSIALKFDTTPNELVQLNKLFSRAVVTGQVLYVPDPEYVSSVESSPSLSPVSPLSPTSSEAEFDKTTNPDVHPTEATPSSTFTGIRPARVVSSTSEEEEAFTEKFLKINCKYITSGKGTVSGVLLVTPNNIMFDPHKNDPLVQENGCEEYGIMCPMEEVMSAAMYKEILDSKIKESLPIDIDQLSGRDFCHSKKMTGSNTEEIDSRIRDAGNDSASTAPRSTEESLSEDVFTESELSPIREELVSSDELRQDKSSGASSESVQTVNQAEVESLTVKSESTGTPGHLRSDTEHSTNEVGTLCHKTDLNNLEMAIKEDQIADNFQGISGPKEDSTSIKGNSDQDSFLHENSLHQEESQKENMPCGETAEFKQKQSVNKGKQGKEQNQDSQTEAEELRKLWKTHTMQQTKQQRENIQQVSQKEAKHKITSADGHIESSALLKEKQRHRLHKFLCLRVGKPMRKTFVSQASATMQQYAQRDKKHEYWFAVPQERTDHLYAFFIQWSPEIYAEDTGEYTREPGFIVVKKIEESETIEDSSNQAAAREWEVVSVAEYHRRIDALNTEELRTLCRRLQITTREDINSKQVATVKADLESESFRPNLSDPSELLLPDQIEKLTKHLPPRTIGYPWTLVYGTGKHGTSLKTLYRTMTGLDTPVLMVIKDSDGQVFGALASEPLKVSDGFYGTGETFVFTFCPEFEVFKWTGDNMFFIKGDMDSLAFGGGGGEFALWLDGDLYHGRSHSCKTFGNRTLSKKEDFFIQDIEIWAFE [OXR1]	-0.176	thermal stability score (HeLa Kyoto [3]; [4]): -0.363; thermal stability score (HeLa Kyoto [3]; cell cycle stage: mitosis): -2.03
RPL18	0.797	–
LDHA	-0.0758	–
MRPS11	-0.0467	–
TFRC	-0.13	–
RPS9	0.434	–
RPL9	0.502	–
MRPL30	0.00936	–
RPL26L1	0.994	–
RPS29	0.655	–
RPS16	0.511	–
SCFD1	-0.0937	–
BTF3	0.172	–
MMCGAPSATQPATAETQHIADQVRSQLEEKENKKFPVFKAVSFKSQVVAGTNYFIKVHVGDEDFVHLRVFQSLPHENKPLTLSNYQTNKAKHDELTYF [CSTB]	-0.077	thermal stability score (HeLa Kyoto [3]; [4]): -2.35; thermal stability score (HeLa Kyoto [3]; cell cycle stage: mitosis): -3.83
RPS8	0.735	–
RPL5	0.442	–
RPS13	0.484	–

Substance	solubility change mitosis (log2) (HeLa Kyoto [1])	other results
RPL3	0.667	–
RPS2	0.389	–
MRPS6	0.0185	–
NAA40	0.145	–
EEF2	-0.164	–
MRPL41	0.232	–
RPL12	0.659	–
MRPL9	-0.0572	–
DNPEP	-0.0236	–
MRPL28	0.00818	–
FSCN1	-0.135	–
MRPL32	0.35	–
SNCA	0.157	–
FAM175B	-0.114	–
MRPS21	0.0482	–
MRPL2	0.0937	–
MRPL13	-0.0691	–
RPL13A	0.619	–
RPL35	1.27	–
TPRG1L	-0.205	–
MRPS24	-0.0858	–
MAQPGTLNLNNEVVKMRKEVKRIRVLVIRKLVRSVGRLKSKKGTEDALLKNQRRAQRLLEEIHAMKELKPDIVTKSALGDDINFEKIFKKPDSTATERAIARLAVHPLLKKKIDVLKAAVQAFKEARQNVAEVESSKNASEDNHSENTLYSNDNGSNLQREATVISEQKVKETKILAKKPIHNSKEKIAKMEHGPKAVTIANSPSKPSEKDSVVSLESQKTPADPKLKTLSQTKKNKGSDSSLSGNSDGGEEFCEEEKEYFDDSTEERFYKQSSMSEDSDSGDDFFIGKVRRTRKKESSCHSSVKEQKPLEKVFLKEDTGETHGDTRNDKIKPSTETRKLESVFFHSLSGSKSSRRNFKEQAPKTRSLDFPQNEPQIKNQFNKKLSGRLENTKQQLQLPLHPSWEASRRRKEQQSNIAVFQGKKITFDD [SRFBP1]	0.584	thermal stability score (HeLa Kyoto [3]; [4]): -0.14; thermal stability score (HeLa Kyoto [3]; cell cycle stage: mitosis): -0.669
MRPL1	-0.101	–
MRPS35	0.0565	–

Substance	solubility change mitosis (log2) (HeLa Kyoto [1])	other results
HIST1H4A	0.331	–
MRPS10	-0.0122	–
RPS28	0.73	–
MRPS31	-0.0986	–
DTX3L	0.0969	–
PSEN1	0.045	–
MRPS22	-0.0527	–
VPS29	-0.224	–
MRPL33	-0.0245	–
WDR5	-0.102	–
RPL19	0.873	–
BPTF	-0.0311	–
STAM2	-0.173	–
MRPL20	-0.0687	–
RPS15	0.616	–
MRPS23	0.188	–
MSYGRPPPDVEGMTSLKVDNLTYRTSPDTLRRVFEKYGRVGDVYIPRDRYTKESRGFAFVRFHDKRDAEDAMDAMDGAVLDGRELRVQMARYGRPPDSHHSRRGPPPRRYGGGGYGRRSRSPRRRRRSRSRSRSRSRSRSRSRYSRSKSRSRTRSRSRSTSKSRSARRSKSKSSSVSRSRSRSRSRSRSRSPPPVSKRESKSRSRSKSPPKSPEEEGAVSS [SRSF2]	0.24	thermal stability score (HeLa Kyoto [3]; [4]): -2.71; thermal stability score (HeLa Kyoto [3]; cell cycle stage: mitosis): -5.51
RPL21	0.856	–
RPL7A	0.753	–
CDK2	-0.211	–
RPS18	0.385	–
SLIRP	0.0681	–

— the supplement of paper PMC5998384
